# Data published in patent US20220411483A1 (Chugai, published 2022).
# Where a chain is given by its changes, count along the chain named.
# B1: IL6R-BP246/IL6R-L (antibody, human IgG1, kappa, name in EU numbering)
# heavy: QVQLQESGPGLVKPSETLSLTCAVSGHSISHDHAWSWVRQPPGEGLEWIGFISYSGITNYNPSLQGRVTISRDNSKNTLYLQMNSLRAEDTAVYYCARSLARTTAMDYWGEGTLVTVSSASTKGPSVFPLAPSSKSTSGGTAALGCLVKDYFPEPVTVSWNSGALTSGVHTFPAVLQSSGLYSLSSVVTVPSSSLGTQTYICNVNHKPSNTKVDKKVEPKSCDKTHTCPPCPAPDLLGDDSVFLFPPKPKDTLMISRTPEVTCVVVDVQDEDGEVKFNWYVDGVEVHNAKTKPREEQDNSTYRVVSVLTVLHQDWLNGKEYKCKVSNAALPRPIEKTISKAKGQPREPQVYTLPPSRDELTKNQVSLTCLVKGFYPSDIAVEWESNGQPENNYKTTPPVLDSDGSFFLYSKLTVDKSRWQQGNVFSCSVMHEALHNHYTQESLSLSP
# light: not shown
# notes: IgG1; alterations on IL6R-B3, EU numbering
# B2: IL6R-BP243/IL6R-L (antibody, human IgG1, kappa, name in EU numbering)
# heavy: B1 heavy with L236Y, Q269S, D298Y, A328K
# light: not shown
# notes: as for B1
# B3: IL6R-BP202/IL6R-L (antibody, human IgG1, kappa, name in EU numbering)
# heavy: B1 heavy with D235E, Q269S, D270H, D298Y
# light: not shown
# notes: as for B1
# B4: IL6R-BP187/IL6R-L (antibody, human IgG1, kappa, name in EU numbering)
# heavy: B1 heavy with D235E, L236Y, D239G, Q269S, D270H, D298Y, R332K
# light: not shown
# notes: as for B1
# B5: IL6R-BP233/IL6R-L (antibody, human IgG1, kappa, name in EU numbering)
# heavy: B1 heavy with D235E, L236Y, Q269S, D270H, D298Y, A328K, R332K
# light: not shown
# notes: as for B1
# B6: IL6R-BP191/IL6R-L (antibody, human IgG1, kappa, name in EU numbering)
# heavy: B1 heavy with D239G, Q269S, D298Y, R332K
# light: not shown
# notes: as for B1
# B7: IL6R-BP180/IL6R-L (antibody, human IgG1, kappa, name in EU numbering)
# heavy: B1 heavy with D235E, Q269S, D270H, D298Y, A328K, R332K
# light: not shown
# notes: as for B1
# B8: IL6R-BP220/IL6R-L (antibody, human IgG1, kappa, name in EU numbering)
# heavy: B1 heavy with Q269S, A328K, R332K
# light: not shown
# notes: as for B1
# B9: IL6R-BP189/IL6R-L (antibody, human IgG1, kappa, name in EU numbering)
# heavy: B1 heavy with D235E, Q269S, D298Y, R332K
# light: not shown
# notes: as for B1
# B10: IL6R-BP182/IL6R-L (antibody, human IgG1, kappa, name in EU numbering)
# heavy: B1 heavy with D239G, Q269S, D270H, A328K, R332K
# light: not shown
# notes: as for B1
# B11: IL6R-2B253/IL6R-L (antibody, human IgG1, kappa, name in EU numbering)
# heavy: B1 heavy with D239G, Q269S, D270H, G273P, D298Y, V325M, A328K, R332A
# light: not shown
# notes: as for B1
# B12: IL6R-BP085/IL6R-L (antibody, human IgG1, kappa, name in EU numbering)
# heavy: B1 heavy with D235E, Q269S, D270H, G273P, D298Y, A328K, R332K
# light: not shown
# notes: as for B1
# B13: IL6R-BP188/IL6R-L (antibody, human IgG1, kappa, name in EU numbering)
# heavy: B1 heavy with Q269S, D298Y, A328K, R332K
# light: not shown
# notes: as for B1
# B14: IL6R-BP196/IL6R-L (antibody, human IgG1, kappa, name in EU numbering)
# heavy: B1 heavy with D235E, L236Y, D239G, Q269S, D298Y, R332K
# light: not shown
# notes: as for B1
# B15: IL6R-BP183/IL6R-L (antibody, human IgG1, kappa, name in EU numbering)
# heavy: B1 heavy with L236Y, D239G, Q269S, D270H, D298Y, R332K
# light: not shown
# notes: as for B1
# B16: IL6R-BP211/IL6R-L (antibody, human IgG1, kappa, name in EU numbering)
# heavy: B1 heavy with D239G, Q269S, D298Y
# light: not shown
# notes: as for B1
# B17: IL6R-BP208/IL6R-L (antibody, human IgG1, kappa, name in EU numbering)
# heavy: B1 heavy with Q269S, D298Y, A328K
# light: not shown
# notes: as for B1
# B18: IL6R-BP132/IL6R-L (antibody, human IgG1, kappa, name in EU numbering)
# heavy: B1 heavy with D239G, Q269S, D270H, G273P, D298Y, R332K
# light: not shown
# notes: as for B1
# B19: IL6R-BP186/IL6R-L (antibody, human IgG1, kappa, name in EU numbering)
# heavy: B1 heavy with L236Y, Q269S, D270H, R332K
# light: not shown
# notes: as for B1
# B20: IL6R-BP197/IL6R-L (antibody, human IgG1, kappa, name in EU numbering)
# heavy: B1 heavy with L236Y, Q269S, A328D, R332K
# light: not shown
# notes: as for B1
# B21: IL6R-BP184/IL6R-L (antibody, human IgG1, kappa, name in EU numbering)
# heavy: B1 heavy with D239G, Q269S, D270H, D298Y, A328K, R332K
# light: not shown
# notes: as for B1
# B22: IL6R-BP204/IL6R-L (antibody, human IgG1, kappa, name in EU numbering)
# heavy: B1 heavy with D239G, Q269S, D270H, D298Y
# light: not shown
# notes: as for B1
# B23: IL6R-BP210/IL6R-L (antibody, human IgG1, kappa, name in EU numbering)
# heavy: B1 heavy with D235E, Q269S, D298Y, A328K
# light: not shown
# notes: as for B1
# B24: IL6R-BP223/IL6R-L (antibody, human IgG1, kappa, name in EU numbering)
# heavy: B1 heavy with D235E, L236Y, Q269S, D298Y
# light: not shown
# notes: as for B1
# B25: IL6R-BP511/IL6R-L (antibody, human IgG1, kappa, name in EU numbering)
# heavy: B1 heavy with D235E, V266I, Q269A, D270E, E274P, A328K
# light: not shown
# notes: human IgG1
# B26: IL6R-BP563/IL6R-L (antibody, human IgG1, kappa, name in EU numbering)
# heavy: B1 heavy with Q269S, D270E, E274D, A328K
# light: not shown
# notes: human IgG1
# B27: IL6R-BP550/IL6R-L (antibody, human IgG1, kappa, name in EU numbering)
# heavy: B1 heavy with D235E, V266I, Q269G, D270E, E274D, A328K
# light: not shown
# notes: human IgG1
# B28: IL6R-BP536/IL6R-L (antibody, human IgG1, kappa, name in EU numbering)
# heavy: B1 heavy with V266I, Q269S, D270E, A328K, A329G, P398M
# light: not shown
# notes: human IgG1
# B29: IL6R-BP538/IL6R-L (antibody, human IgG1, kappa, name in EU numbering)
# heavy: B1 heavy with D235E, V266I, Q269S, D270E, D298Y, A328K
# light: not shown
# notes: human IgG1
# B30: IL6R-BP551/IL6R-L (antibody, human IgG1, kappa, name in EU numbering)
# heavy: B1 heavy with D235E, V266I, Q269S, D270E, E274D, A328K
# light: not shown
# notes: human IgG1
# B31: IL6R-BP565/IL6R-L (antibody, human IgG1, kappa, name in EU numbering)
# heavy: B1 heavy with Q269A, D270E, A328K
# light: not shown
# notes: human IgG1
# B32: IL6R-BP539/IL6R-L (antibody, human IgG1, kappa, name in EU numbering)
# heavy: B1 heavy with D235E, V266I, Q269G, D270E, E274P, A328K
# light: not shown
# notes: human IgG1
# B33: IL6R-BP503/IL6R-L (antibody, human IgG1, kappa, name in EU numbering)
# heavy: B1 heavy with V266I, Q269A, D270E, A328K, A329G, P398M
# light: not shown
# notes: human IgG1
# B34: IL6R-BP556/IL6R-L (antibody, human IgG1, kappa, name in EU numbering)
# heavy: B1 heavy with D235E, V266I, Q269G, D270E, A328K
# light: not shown
# notes: human IgG1
# B35: IL6R-BP533/IL6R-L (antibody, human IgG1, kappa, name in EU numbering)
# heavy: B1 heavy with V266I, Q269G, D270E, A328K, P398L
# light: not shown
# notes: human IgG1
# B36: IL6R-BP540/IL6R-L (antibody, human IgG1, kappa, name in EU numbering)
# heavy: B1 heavy with D235E, V266I, Q269S, D270E, E274P, A328K
# light: not shown
# notes: human IgG1
# Target: T1, FcγRIa extracellular domain with C-terminal His tag (human, UniProt P12314 16-292)
# T1 construct: also called FcgRIa
# Experiment: SPR (Biacore), FcgR as analyte
# T1 sequence (P12314 16-292): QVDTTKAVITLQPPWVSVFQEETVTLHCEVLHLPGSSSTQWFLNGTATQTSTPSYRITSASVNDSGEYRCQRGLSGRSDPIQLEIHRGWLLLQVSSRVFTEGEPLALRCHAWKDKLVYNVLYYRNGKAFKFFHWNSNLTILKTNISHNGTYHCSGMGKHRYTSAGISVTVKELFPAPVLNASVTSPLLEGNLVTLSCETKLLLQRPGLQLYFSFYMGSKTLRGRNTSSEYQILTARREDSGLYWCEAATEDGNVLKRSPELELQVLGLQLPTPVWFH
row,Binder,Kd [nM]
1,B1,8
2,B2,3
3,B3,95
4,B4,25
5,B5,70
6,B6,4
7,B7,98
8,B8,20
9,B9,42
10,B10,10

# Target: T2, FcγRIIa R type extracellular domain with C-terminal His tag (human, UniProt P12318 34-217)
# T2 construct: extracellular domain; also called FcgRIIaR
# T2 sequence (looked up): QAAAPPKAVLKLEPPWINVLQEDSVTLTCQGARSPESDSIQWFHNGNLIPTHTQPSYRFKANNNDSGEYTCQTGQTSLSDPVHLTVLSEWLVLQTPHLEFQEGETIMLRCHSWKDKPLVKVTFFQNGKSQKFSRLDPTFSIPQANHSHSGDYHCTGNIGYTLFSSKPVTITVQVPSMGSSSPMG
# Experiment: SPR (Biacore), FcgR as analyte
row,Binder,Kd [nM]
1,B11,5000
2,B12,4200
3,B13,1000
4,B4,2800
5,B6,3000
6,B14,3000
7,B15,2600
8,B16,4100
9,B17,850
10,B18,8000
11,B19,960
12,B20,980
13,B21,2300
14,B22,4500
15,B23,1000
16,B24,600

# Target: T3, FcγRIa extracellular domain with C-terminal His tag (human, UniProt P12314 16-292)
# T3 construct: also called FcgRIa; CD64; not shown: His tag at the C terminus
# Experiment: SPR, antibody captured, FcgR analyte
# T3 sequence (P12314 16-292): as the sequence (P12314 16-292) above
row,Binder,Kd [nM]
1,B25,6
2,B26,12
3,B27,25
4,B28,8.9
5,B29,55
6,B30,32
7,B31,2.4
8,B32,64
9,B33,1.2
10,B34,43
11,B35,7.7
12,B36,96

# Target: T4, FcγRIIa R type extracellular domain with C-terminal His tag (human, UniProt P12318 34-217)
# T4 construct: extracellular domain; also called FcgRIIaR; not shown: His tag at the C terminus
# T4 sequence (looked up): T2 sequence (looked up)
# Experiment: SPR, antibody captured, FcgR analyte
row,Binder,Kd [nM]
1,B25,180
2,B26,460
3,B27,340
4,B28,79
5,B29,200
6,B30,250
7,B31,230
8,B32,330
9,B33,57
10,B34,300
11,B35,120
12,B36,210

# Target: T5, FcγRIIa H type extracellular domain with C-terminal His tag (human, UniProt P12318 34-217)
# T5 construct: extracellular domain; also called FcgRIIaH; not shown: His tag at the C terminus
# T5 sequence (looked up): T2 sequence (looked up) with R134H
# Experiment: SPR, antibody captured, FcgR analyte
row,Binder,Kd [nM]
1,B25,4300
2,B26,8300
3,B27,5000
4,B28,1300
5,B29,3000
6,B30,2800
7,B31,4700
8,B32,5600
9,B33,860
10,B34,5800
11,B35,2600
12,B36,4600

# Target: T6, FcγRIIb extracellular domain with C-terminal His tag (human, UniProt P31994 43-217)
# T6 construct: extracellular domain; also called FcgRIIb; not shown: His tag at the C terminus
# T6 sequence (looked up): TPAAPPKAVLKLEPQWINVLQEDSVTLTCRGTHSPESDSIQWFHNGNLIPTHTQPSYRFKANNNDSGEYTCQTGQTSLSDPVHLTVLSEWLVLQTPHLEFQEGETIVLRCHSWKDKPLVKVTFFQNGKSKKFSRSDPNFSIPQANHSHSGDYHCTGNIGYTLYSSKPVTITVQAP
# Experiment: SPR, antibody captured, FcgR analyte
row,Binder,Kd [nM]
1,B25,3.5
2,B26,16
3,B27,7.6
4,B28,3
5,B29,5.3
6,B30,6.4
7,B31,5.5
8,B32,8.4
9,B33,1.7
10,B34,8.4
11,B35,4.1
12,B36,5.7

# Target: T4, FcγRIIa R type extracellular domain …
# Experiment: SPR; KD of IL6R-B3/IL6R-L divided by KD of variant
row,Binder,Relative FcgRIIaR-binding Activity
1,B25,6.1
2,B26,2.4
3,B27,3.2
4,B28,13.7
5,B29,5.3
6,B30,4.4
7,B31,4.7
8,B32,3.3
9,B33,19
10,B34,3.6
11,B35,9
12,B36,5.1

# Target: T6, FcγRIIb extracellular domain with …
# Experiment: SPR; KD of IL6R-B3/IL6R-L divided by KD of variant
row,Binder,Relative FcgRIIb-binding Activity
1,B25,888
2,B26,196
3,B27,405
4,B28,1040
5,B29,585
6,B30,481
7,B31,563
8,B32,368
9,B33,1810
10,B34,369
11,B35,754
12,B36,539
